B1: Nanobody Nb9 (VHH)
VHH: QMQLVESGGGLVQPGGSLRLSCAAPESTLDDYAIGWFRQAPGKEREGVSCIGSSGDSTNYADSVKGRFTVSRDNAKNTVYLQMNDLRPEDTAVYYCAAAHRIFGGCLVIHSSGYVSWGQGTPVTVSS
notes: Alpaca nanobody selected by phage display against BtuF; additional disulfide bond between C72 (CDR2) and C128 (CDR3); source: E. coli WK6, periplasmic extract, purified (IMAC, PD10 desalting)
B2: Nanobody Nb7 (VHH)
VHH: QGQLVESGGGLVQPGGSLRLSCVASGFDFSNYTMSWVRQAPGKGLEWVSDISSGGGSTYYADSVKGRFTISRDNAKNTVYLQMNTLKPEDTAVYLCTELGVAPPGQGTRVTVSS
notes: Alpaca nanobody selected by phage display against BtuF; source: E. coli WK6, periplasmic extract, purified (IMAC, PD10 desalting)
B3: Nanobody Nb15 (VHH)
VHH: QVQLVESGGGLVQPGGSLRLSCTASEATLDDYAIGWFRQAPGKEREGVSCIGSSGDVTHYADSVKGRFTISRDNAKNTGYLQLNNLRPEDTAVYYCAAAHRILGGCLVIHSSDYTSSSKGTRVTVSS
notes: as for B2
B4: Nanobody Nb17 (VHH)
VHH: QRQLVESGGGLVQAGGSLRLSCAASGRTFSSYVMGWFRQAPGKEREAVASISWSGGSTYYADSVKGRFTISRDNAKNTVYLQMNSLKPEDTAVYYCAADHRTYYTGTYSPDYWGKGTPVTVSS
notes: as for B2
B5: Nanobody Nb10 (VHH)
VHH: QLQLVESGGGLVQPGGSLRLSCAASGFTLDYYAIGWFRQAPGKEREGVSCISSSGGSTNYADSVKGRFTISRDNAKNTVYLQMNSLKPEDTAVYYCAADYAGRGFCAGLYDYWSQGTPVTVSS
B6: Nanobody Nb14 (VHH)
VHH: QLQLVESGGGLVQPGGSLRLSCAASGFTFSSVAMSWVRQAPGKGLEWVSDINSVGSTYYADSVKGRFTISRDNAKNTVYLQMNSLKPEDTAVYYCVPLGERPEIHGGKGTPVTVSS

Target: T1, BtuF, periplasmic substrate-binding protein of the Escherichia coli vitamin B12 transporter BtuCD-F, tag-less (Escherichia coli (K12 sequence), UniProt P37028)
T1 construct: the assays name the protein tag-less; also called tag-less BtuF; tagless BtuF; source: prepared as described previously [6,18], purified; not shown: His-tag (3C cleavable), C-terminal, cleaved
Assay: pull-down; His-tagged nanobodies immobilized on Ni-NTA, 1.5 molar excess of tagless BtuF, 1.5 hours at 4 °C; wash 50 mM Tris-HCl pH 7.5, 250 mM NaCl, 10% glycerol, 20 mM imidazole; elution 500 mM imidazole; SDS-PAGE; no Cbl
Settings: both partners purified

Binder	binding result
B1	binds
B2	binds
B3	binds
B4	binds

Target: Fluorescein-labeled variant of BtuF (BtuF_(fluo)) (Escherichia coli) (UniProt P37028)
Assay: fluorescence kinetics of nanobody displacement by Cbl; 10 nM BtuF_(fluo) equilibrated with 10 nM nanobody, then 1, 5 or 10 μM Cbl; slow phase of fluorescence decrease at 520 nm gives koff; kon calculated as koff/Ki; 50 mM Tris-HCl pH 7.5, 200 mM NaCl, 0.001% Tween 20, 23 °C
Settings: not given

Binder	koff [s⁻¹]	kon [M⁻¹ s⁻¹]	occupancy of BtuF (fluo) with nanobody (10 nM each) [%]
B2	0.0019	79000	30
B5	0.0071	1.2e+06	53
B4	0.0025	46000	14

Target: Fluorescein-labeled variant of BtuF (BtuF_(fluo)) (Escherichia coli) (UniProt P37028)
Assay: other fluorescence titration; equilibrium competition in solution: 5 nM BtuF_(fluo), Cbl 0.3 nM to 10 μM at a constant nanobody concentration (5 μM Nb14; 1 μM Nb7, Nb15, Nb17; 100 nM Nb9, Nb10); 50 mM Tris-HCl pH 7.5, 200 mM NaCl, 0.001% Tween 20, 23 °C; Ki fitted with Dynafit with Kd of Cbl 8.1 nM as input
Settings: not given

Binder	Ki [nM]
B6	770
B2	24
B5	6
B3	79
B4	54

Source: article PMC5662663 (Scientific Reports, 2017)
